Test results: PMC4102529, “FRET Based Quantification and Screening Technology Platform for the Interactions of Leukocyte Function-Associated Antigen-1 (LFA-1) with InterCellular Adhesion Molecule-1 (ICAM-1)” (PLoS ONE, 2014)

System: LFA-1 (αLβ2)
Test: Steady-state in-solution FRET binding assay (Alexa Fluor 488-LFA-1 donor / Alexa Fluor 555-D1-D2-Fc acceptor) to determine Kd
Parameters: species or system human
Experimental: In determining the equilibrium dissociation constant (Kd) between the interacting protein pairs, LFA-1 and D1-D2-Fc, from the FRET binding assay, several concentrations of the acceptor conjugate, Alexa Fluor 555-D1-D2-Fc, were added to a fixed concentration of the donor conjugate, Alexa Fluor 488-LFA-1. The donor conjugate concentration was kept constant at 100 nM while the acceptor conjugate concentration was varied from 0 upto 1.6 µM. These FRET mixtures, with different donor-to-acceptor ratios, were excited by 470 and 530 nm. […] The peak intensity at 570 nm has contributions from unquenched donor emissions, direct acceptor emission and the emission of acceptor due to FRET (FFRET). However, when the FRET mixture was excited with 530 nm, only a single peak corresponding to the direct emission of the acceptor (FA) was observed.
Thus, to obtain the absolute maximum FRET emission signal at 570 nm (FFRETmax), we need to quantify each contribution from the donor and acceptor emissions as well as the FRET emission signal (FFRET). […]
In general, the direct emission of Alexa Fluor 488-LFA-1 at 570 nm is expected to be proportional to its emission at 520 nm when excited at 470 nm. […] The calculated value of “b” was 0.101±0.008. […]

- maximum FRET emission signal (FFRETmax) (at 570 nm, 100 nM Alexa Fluor 488-LFA-1, Alexa Fluor 555-D1-D2-Fc 0 to 1.6 µM, fit of Eq. (6), adj. R-square = 0.9895): 6.33×10^3 RFU
- Kd (steady-state FRET, 100 nM Alexa Fluor 488-LFA-1 fixed, Alexa Fluor 555-D1-D2-Fc 0 to 1.6 µM, PBS, pH 7.4, 1 mM EGTA, 2 mM Mg^2+, 50 µl, 96-well plate, excitation 470 nm, emission 520/570 nm, nonlinear fit Eq. (6), one-to-one, data points mean (rms) of 9 measurements, 3 samples, read-out: dissociation constant (Kd) of the LFA-1/D1-D2-Fc interaction): 17.9 ± 1.34 nM
B1: D1-D2-Fc: chimeric molecule consisting of the amino-terminal first two Ig domains of human ICAM-1 (D1-D2) fused to IgG1 Fc region (protein)
chain: QTSVSPSKVILPRGGSVLVTCSTSCDQPKLLGIETPLPKKELLLPGNNRKVYELSNVQEDSQPMCYSNCPDGQSTAKTFLTVYWTPERVELAPLPSWQPVGKNLTLRCQVEGGAPRANLTVVLLRGEKELKREPAVGEPAEVTTTVLVRRDHHGANFSCRTELDLRPQGLELFENTSAPYQLQTFVLPATPPQLVSPRVLEVDTQGTVVCSLDGLFPVSEAQVHLALGDQRLNPTVTYGNDSFSAKASVSVTAEDEGTQRLTCAVILGNQSQETLQTVTIYSFPAPNVILTKPEVSEGTEVTVKCEAHPRAKVTLNGVPAQPLGPRAQLLLKATPEDNGRSFSCSATLEVAGQLIHKNQTRELRVLYGPRLDERDCPGNWTWPENSQQTPMCQAWGNPLPELKCLKDGTFPLPIGESVTVTRDLEGTYLCRARSTQGEVTRKVTVNVLSPRYEIVIITVVAAAVIMGTAGLSTYLYNRQRKIKKYRLQQAQKGTPMKPNTQATPP
modifications: Alexa Fluor 555 (succinimidyl ester) on amine groups (amine terminus, ε-amino groups of lysines), random; F/P molar ratio 3.14±0.27; left off: Fc (IgG1), end not stated, kept
notes: chimeric molecule consisting of the amino-terminal first two Ig domains of human ICAM-1 (D1-D2) fused to IgG1 Fc region
